Patent US20020172962, “Methods of producing nucleic acid ligands” (GILEAD SCIENCES, INC., published 2002)

Assays:
HIV-1 Rev [1] = target: T1, HIV-1 Rev (HIV-1, UniProt P04618 P04618:1-116); assay: filter; high-affinity ligand; modification interference; 200 mM KOAc, 50 mM Tris pH 7.7, 10 mM DTT, 37 C; conditions: tags: American Biotechnologies, Inc
Experimental: (§1) Chemical Modification of RNA. Chemical modification techniques for nucleic acids are described in general in Ehresmann et al. (1987) Nucleic Acids Research 15:9109-9128. Modification of RNA under native conditions was performed in 200 mM KOAc, 50 mM Tris-HCl pH 7.7, 1 mM EDTA at 37° C. Modification under denaturing conditions was done in 7 M urea, 50 mM Tris-HCl pH 7.7 at 90° C. Concentration of modifying agents and incubation times are as follows: ethylnitrosourea (ENU)-1/5 dilution v/v of ethanol saturated with ENU, native 1-3 hours, denaturing 5 minutes; dimethyl sulfate (DMS)-1/750-fold dilution v/v, native 8 minutes, denaturing 1 minute; kethoxal- 0.5 mg/ml, native 5 minutes, denaturing 2 minutes; carbodiimide (CMCT)-10 mg/ml, native 30 minutes, denaturing 3 minutes; diethyl pyrocarbonate (DEPC)-1/10 dilution v/v, native 10 minutes, denaturing 1 minute.
Modification interference of Rev binding. RNAs chemically modified under denaturing conditions were selected for Rev binding through filter partitioning. […]
The extent of modification interference was determined by densitometric scanning of autoradiographs using LKB (ENU) and Molecular Dynamics (DMS, kethoxal, CMCT, and DEPC) laser densitometers. […]

[2] = target: T2, HIV-1 reverse transcriptase (HIV-RT) (HIV-1, UniProt P03366;P03366 P03366:600-1159,P03366:600-1039); assay: footprint; chemical protection and modification interference
Source text: Selection of modified RNAs by HIV-RT. Binding reactions were as above except that rather than to vary the amount of HIV-RT added to a reaction, the volume of reaction was increased in order to lower concentration. RNAs that were modified under denaturing conditions were selected at concentrations of 20, 4 and 0.8 nanomolar HIV-RT (in volumes of 1, 5 and 25 mls of binding buffer.) The amount of RNA added to each reaction was equivalent for each experiment (approximately 1-5 picomoles). RNA was eluted from filters as described in Tuerk et al. (1990) J. Mol. Biol. 213:749; Tuerk and Gold (1990) Science 249:505-510, and assayed for modified positions. In each experiment a control was included in which unselected RNA was spotted on a filter, eluted and assayed for modified positions in parallel with the selected RNAs. Determinations of variation in chemical modification for selected versus unselected RNAs were made by visual inspection of exposed films of electrophoresed assay products with the following exceptions. The extent of modification interference by ENU was determined by densitometric scanning of films using an LKB laser densitomer. An index of modification interference (M.I.) at each position was calculated as follows:
Assay of chemical modification. […]

[3] = target: T2, HIV-1 reverse transcriptase (HIV-RT); assay: filter; selected by HIV-RT from mixed 2'-OMe/2'-OH population
HIV-1 Rev [4] = target: T1, HIV-1 Rev; assay: footprint; 200 mM KOAc, 50 mM Tris pH 7.7, 1 mM DTT, 5 mM MgCl2; 500 nM Rev; conditions: tags: American Biotechnologies, Inc
Experimental: as §1
Modification of RNA in the presence of Rev. “Footprinting” of the Rev ligand, modification of the RNA ligand in the presence of Rev protein, was performed in 200 mM KOAc, 50 mM Tris-Cl pH 7.7, 1 mM DTT, and 5 mM MgCl₂. Concentration of protein was 500 nanomolar, and approximately in 3-fold molar excess over RNA concentration. Modification with protein present was attempted with all modifying agents listed above except ethylnitrosourea (ENU).

T1 sequence (P04618 whole entry, one chain of several): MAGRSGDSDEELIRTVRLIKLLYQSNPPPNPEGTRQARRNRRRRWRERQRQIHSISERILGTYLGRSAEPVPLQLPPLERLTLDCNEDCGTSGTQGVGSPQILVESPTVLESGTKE

B1: Rev ligand 6a (ssRNA)
RNA: GGGUGCAUUGAGAAACACGUUUGUGGACUCUGUAUCU
HIV-1 Rev [1]
  binding result: binds

B2: lengthened ligand B (ssRNA)
RNA: GGUCCGAAGUGCAACGGGAAAAUGCACUAUGAAAGAAUUUUAUAUCUCUAUUGAAAC
[2]
  binding result: binds

B3: 2'-methoxy mixed ligand B oligonucleotide (mixed)
RNA: AAAAAUCCGAAGUGCAACGGGAAAAUGCACU
modifications: AAAAA 5' tail deoxy; UCCGA and ACGGGAAAA mixed 2'-OH/2'-OMe; AGUGCA and UGCACU 2'-OMe
[3]
  binding result: binds

B4: extended Rev ligand 6a (ssRNA)
RNA: GGGUGCAUUGAGAAACACGUUUGUGGACUCUGUAUCUAUGAAAGAAUUUUAUAUCUCUAUUGAAAC
HIV-1 Rev [4]
  binding result: binds
